The results in this text go back to patent US20180230213A1 (AVEO PHARMACEUTICALS, published 2018).

Experiment [1] concerns the target T1, human Notch4 expressed on the surface of CHO cells (human, UniProt Q99466 24-2003).
T1 construct: whole, on cells
In words: electrochemiluminescence (Meso Scale Discovery) on transfected CHO cells. The method, then:
(§1) To determine specificity of binding to cell surface Notch proteins, antibody 4F11 was tested for binding to human Notch1, human Notch2, human Notch3 and human Notch4 expressed on the surface of CHO cells using electrochemiluminescence (Meso Scale Discovery). A CHO line lacking any human Notch protein was also produced for use as a negative control. Cells were grown under standard conditions (37° C., F12+10% FBS). For binding studies, cells were washed in PBS containing calcium and magnesium, and removed from the plate by treatment with Cell Dissociation Buffer (Life Technologies) for ten minutes at 37° C.
(§2) Cells were seeded at a density of 30,000 cells per well, in hybridoma media, instandard 96-well binding plates (Meso Scale Discovery, Cat. No. L15XA-6). Cells were incubated for one hour at 37° C. Antibodies or control IgG were added at 5 μg/ml, in 50 μl hybridoma media, and incubated for one hour at 37° C. The plates were washed twice with PBS containing 3% BSA. Binding of the antibodies to cell surface was detected using 2 μg/ml of MSD anti-mouse IgG secondary antibody (Meso Scale Discovery, Cat. No. R32AC-1) for one hour at 4° C. Plates were washed twice with PBS containing 3% BSA, and 150 μl of read buffer (Meso Scale Discovery Cat. No. R92TC-1) was added. The plates were analyzed on a Sector Imager 2400 instrument (Meso Scale Discovery).

In experiment [2] the target is T2, human Notch2 expressed on the surface of CHO cells (human, UniProt Q04721 26-2471).
T2 construct: whole, on cells
The description is as above. How it is done:
as §1, §2

Experiment [3] deals with T3, human Notch1 expressed on the surface of CHO cells (human, UniProt P46531 19-2555).
T3 construct: whole, on cells
The experiment is described as above. The method, then:
as §1, §2

Experiment [4] addresses T4, recombinant human Notch3 extracellular domain (containing EGF like domains 1-11) Fc fusion protein (human, UniProt Q9UM47 40-467).
T4 construct: domain: EGF like domains 1-11; also called rhNotch3-Fc; rhNotch3
T4 sequence (looked up): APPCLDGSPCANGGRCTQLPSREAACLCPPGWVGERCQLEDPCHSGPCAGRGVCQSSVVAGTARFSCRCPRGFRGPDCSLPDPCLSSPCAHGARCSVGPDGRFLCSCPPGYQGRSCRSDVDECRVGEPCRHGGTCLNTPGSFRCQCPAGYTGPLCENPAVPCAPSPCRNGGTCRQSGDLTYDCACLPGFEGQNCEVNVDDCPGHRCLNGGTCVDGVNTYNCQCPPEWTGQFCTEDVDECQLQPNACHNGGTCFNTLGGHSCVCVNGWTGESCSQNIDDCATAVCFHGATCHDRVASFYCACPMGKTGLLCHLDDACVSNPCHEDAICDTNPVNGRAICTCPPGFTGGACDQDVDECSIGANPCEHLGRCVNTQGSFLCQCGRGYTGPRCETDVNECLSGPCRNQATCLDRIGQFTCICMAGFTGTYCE
Put plainly: SPR Biacore T100, 4F11 captured by anti-mouse IgG, rhNotch3-Fc analyte, 25 C. The method, then: (§3) The binding affinity and kinetics of binding of antibody 4F11 to recombinant human Notch3 extracellular domain (containing EGF like domains 1-11) Fc fusion protein (rhNotch3-Fc (R&D Systems, Inc., Minneapolis, Minn.)) were measured by surface plasmon resonance using a Biacore® T100 instrument (GE Healthcare, Piscataway, N.J.).
(§4) Rabbit anti-mouse IgGs (GE Healthcare) were immobilized on carboxymethylated dextran CM4 sensor chips (GE Healthcare) by amine coupling, according to a standard protocol. Analyses were performed at 25° C. and 37° C. using PBS containing 0.05% surfactant P20 as running buffer. The antibody was captured in individual flow cells at a flow rate of 10 μl/minute. Injection time was varied for each antibody to yield an Rmax between 30 and 60 resonance units (RU). Buffer or rhNotch3-Fc diluted in running buffer was injected sequentially over a reference surface (no antibody captured) and the active surface (antibody to be tested) for 240 seconds at 60 μl/minute. The dissociation phase was monitored for up to 1500 seconds. The surface was then regenerated with two 60-second injections of 10 mM Glycine-HCl, pH 2.25, at a flow rate of 30 μl/minute. The rhNotch3-Fc concentration range tested was 100 nM to 3.125 nM (2 fold dilution).
(§5) Kinetic parameters were determined using the kinetic function of the BIAevaluation software (GE Healthcare) with double reference subtraction. Kinetic parameters for the antibody, kₐ (association rate constant), kd (dissociation rate constant) and KD (equilibrium dissociation constant) were determined.

For experiment [5], the target named is T4, recombinant human Notch3 extracellular …. Put plainly: SPR Biacore T100, 4F11 captured by anti-mouse IgG, rhNotch3-Fc analyte, 37 C. How it is done:
as §3, §4, §5
In general terms: Surface plasmon resonance follows binding to a sensor surface in real time, without labels.

For a further experiment, the target named is T5, rhNotch1-Fc (human, UniProt P46531 19-526).
T5 construct: also called human Notch1 protein; R&D Cat. No. 3647-TK-050
Put plainly: BLI (Octet QK): rhNotch1-Fc loaded on anti-human-Fc sensors, then antibody 4F11 in solution. The method, then: Antibody 4F11 was tested for binding to human Notch1, human Notch2, or human Notch3 proteins. Binding measurements were made by biolayer interferometry (BLI), using a FortéBio Octet® QK instrument (FortéBio, Menlo Park, Calif.). Anti-human-Fc sensors were soaked in PBS containing 1 mg/ml BSA for five minutes prior to binding of antibodies. Then the following proteins (400 nM, in PBS containing 1 mg/ml BSA) were allowed to bind to the sensors: rhNotch1-Fc (R&D Systems, Minneapolis, Minn.; Cat. No. 3647-TK-050), rhNotch2-Fc (R&D Cat. No. 3735-NT-050), rhNotch3-Fc (R&D Cat. No. 1559-NT-050), or rmNotch3-Fc (R&D Cat. No. 1308-NT-050). Notch protein bound sensors were immersed in antibody solution (50 μg/ml) to allow binding of antibody to the Notch protein. Binding was detected by shifts in the interference pattern.
For orientation: In BLI a coated tip is dipped into the sample, and binding shifts an interference pattern.

T1 sequence (Q99466 24-2003): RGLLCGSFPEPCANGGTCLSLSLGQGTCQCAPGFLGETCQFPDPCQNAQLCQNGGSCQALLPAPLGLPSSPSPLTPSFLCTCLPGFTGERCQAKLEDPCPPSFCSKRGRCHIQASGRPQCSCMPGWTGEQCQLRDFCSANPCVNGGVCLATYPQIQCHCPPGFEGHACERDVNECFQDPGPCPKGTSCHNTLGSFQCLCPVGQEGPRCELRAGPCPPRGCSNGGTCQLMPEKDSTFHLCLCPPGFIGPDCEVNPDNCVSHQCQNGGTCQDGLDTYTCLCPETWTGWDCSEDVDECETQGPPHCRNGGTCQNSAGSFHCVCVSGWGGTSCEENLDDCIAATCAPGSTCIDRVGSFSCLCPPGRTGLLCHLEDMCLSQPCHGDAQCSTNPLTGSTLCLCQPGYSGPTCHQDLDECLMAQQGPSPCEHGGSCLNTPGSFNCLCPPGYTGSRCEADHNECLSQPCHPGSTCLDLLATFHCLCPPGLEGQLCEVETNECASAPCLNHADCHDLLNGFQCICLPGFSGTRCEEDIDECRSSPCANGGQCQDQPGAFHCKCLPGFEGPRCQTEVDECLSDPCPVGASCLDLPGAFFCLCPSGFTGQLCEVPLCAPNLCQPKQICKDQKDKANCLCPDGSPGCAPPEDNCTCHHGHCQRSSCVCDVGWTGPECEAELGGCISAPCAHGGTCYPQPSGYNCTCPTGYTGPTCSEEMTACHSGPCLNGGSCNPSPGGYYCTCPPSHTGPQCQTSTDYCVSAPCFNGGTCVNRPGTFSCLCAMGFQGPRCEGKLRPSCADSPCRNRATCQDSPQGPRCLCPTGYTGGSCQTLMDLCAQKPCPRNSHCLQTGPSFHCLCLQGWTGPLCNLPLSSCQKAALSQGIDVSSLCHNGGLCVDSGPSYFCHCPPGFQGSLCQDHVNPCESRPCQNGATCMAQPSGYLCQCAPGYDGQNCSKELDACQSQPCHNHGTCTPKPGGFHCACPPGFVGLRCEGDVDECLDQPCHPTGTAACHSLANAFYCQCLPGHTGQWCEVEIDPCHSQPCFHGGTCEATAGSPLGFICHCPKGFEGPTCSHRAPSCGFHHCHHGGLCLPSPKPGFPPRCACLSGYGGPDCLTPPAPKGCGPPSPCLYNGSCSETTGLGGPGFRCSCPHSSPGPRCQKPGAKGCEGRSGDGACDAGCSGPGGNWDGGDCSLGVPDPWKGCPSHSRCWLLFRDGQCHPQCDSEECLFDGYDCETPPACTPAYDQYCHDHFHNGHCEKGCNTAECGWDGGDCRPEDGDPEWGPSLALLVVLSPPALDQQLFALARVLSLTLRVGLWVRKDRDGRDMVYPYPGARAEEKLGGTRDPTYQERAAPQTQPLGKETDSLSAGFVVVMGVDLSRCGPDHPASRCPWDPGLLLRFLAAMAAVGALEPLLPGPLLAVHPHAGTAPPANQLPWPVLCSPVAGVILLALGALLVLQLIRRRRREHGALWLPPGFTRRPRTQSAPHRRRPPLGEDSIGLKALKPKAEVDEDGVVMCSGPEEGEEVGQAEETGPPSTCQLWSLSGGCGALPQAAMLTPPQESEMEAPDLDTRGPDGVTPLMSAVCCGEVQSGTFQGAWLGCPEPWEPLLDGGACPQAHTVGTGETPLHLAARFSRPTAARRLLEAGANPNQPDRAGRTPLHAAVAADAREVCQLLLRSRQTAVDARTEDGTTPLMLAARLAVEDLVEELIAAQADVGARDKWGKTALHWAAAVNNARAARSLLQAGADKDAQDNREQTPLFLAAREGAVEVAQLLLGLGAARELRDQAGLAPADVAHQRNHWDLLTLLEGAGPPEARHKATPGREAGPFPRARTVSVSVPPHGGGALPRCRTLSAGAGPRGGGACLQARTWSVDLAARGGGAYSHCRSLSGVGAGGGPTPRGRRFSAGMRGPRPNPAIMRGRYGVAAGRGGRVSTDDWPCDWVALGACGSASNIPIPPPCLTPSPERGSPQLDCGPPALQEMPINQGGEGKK
T2 sequence (Q04721 26-2471): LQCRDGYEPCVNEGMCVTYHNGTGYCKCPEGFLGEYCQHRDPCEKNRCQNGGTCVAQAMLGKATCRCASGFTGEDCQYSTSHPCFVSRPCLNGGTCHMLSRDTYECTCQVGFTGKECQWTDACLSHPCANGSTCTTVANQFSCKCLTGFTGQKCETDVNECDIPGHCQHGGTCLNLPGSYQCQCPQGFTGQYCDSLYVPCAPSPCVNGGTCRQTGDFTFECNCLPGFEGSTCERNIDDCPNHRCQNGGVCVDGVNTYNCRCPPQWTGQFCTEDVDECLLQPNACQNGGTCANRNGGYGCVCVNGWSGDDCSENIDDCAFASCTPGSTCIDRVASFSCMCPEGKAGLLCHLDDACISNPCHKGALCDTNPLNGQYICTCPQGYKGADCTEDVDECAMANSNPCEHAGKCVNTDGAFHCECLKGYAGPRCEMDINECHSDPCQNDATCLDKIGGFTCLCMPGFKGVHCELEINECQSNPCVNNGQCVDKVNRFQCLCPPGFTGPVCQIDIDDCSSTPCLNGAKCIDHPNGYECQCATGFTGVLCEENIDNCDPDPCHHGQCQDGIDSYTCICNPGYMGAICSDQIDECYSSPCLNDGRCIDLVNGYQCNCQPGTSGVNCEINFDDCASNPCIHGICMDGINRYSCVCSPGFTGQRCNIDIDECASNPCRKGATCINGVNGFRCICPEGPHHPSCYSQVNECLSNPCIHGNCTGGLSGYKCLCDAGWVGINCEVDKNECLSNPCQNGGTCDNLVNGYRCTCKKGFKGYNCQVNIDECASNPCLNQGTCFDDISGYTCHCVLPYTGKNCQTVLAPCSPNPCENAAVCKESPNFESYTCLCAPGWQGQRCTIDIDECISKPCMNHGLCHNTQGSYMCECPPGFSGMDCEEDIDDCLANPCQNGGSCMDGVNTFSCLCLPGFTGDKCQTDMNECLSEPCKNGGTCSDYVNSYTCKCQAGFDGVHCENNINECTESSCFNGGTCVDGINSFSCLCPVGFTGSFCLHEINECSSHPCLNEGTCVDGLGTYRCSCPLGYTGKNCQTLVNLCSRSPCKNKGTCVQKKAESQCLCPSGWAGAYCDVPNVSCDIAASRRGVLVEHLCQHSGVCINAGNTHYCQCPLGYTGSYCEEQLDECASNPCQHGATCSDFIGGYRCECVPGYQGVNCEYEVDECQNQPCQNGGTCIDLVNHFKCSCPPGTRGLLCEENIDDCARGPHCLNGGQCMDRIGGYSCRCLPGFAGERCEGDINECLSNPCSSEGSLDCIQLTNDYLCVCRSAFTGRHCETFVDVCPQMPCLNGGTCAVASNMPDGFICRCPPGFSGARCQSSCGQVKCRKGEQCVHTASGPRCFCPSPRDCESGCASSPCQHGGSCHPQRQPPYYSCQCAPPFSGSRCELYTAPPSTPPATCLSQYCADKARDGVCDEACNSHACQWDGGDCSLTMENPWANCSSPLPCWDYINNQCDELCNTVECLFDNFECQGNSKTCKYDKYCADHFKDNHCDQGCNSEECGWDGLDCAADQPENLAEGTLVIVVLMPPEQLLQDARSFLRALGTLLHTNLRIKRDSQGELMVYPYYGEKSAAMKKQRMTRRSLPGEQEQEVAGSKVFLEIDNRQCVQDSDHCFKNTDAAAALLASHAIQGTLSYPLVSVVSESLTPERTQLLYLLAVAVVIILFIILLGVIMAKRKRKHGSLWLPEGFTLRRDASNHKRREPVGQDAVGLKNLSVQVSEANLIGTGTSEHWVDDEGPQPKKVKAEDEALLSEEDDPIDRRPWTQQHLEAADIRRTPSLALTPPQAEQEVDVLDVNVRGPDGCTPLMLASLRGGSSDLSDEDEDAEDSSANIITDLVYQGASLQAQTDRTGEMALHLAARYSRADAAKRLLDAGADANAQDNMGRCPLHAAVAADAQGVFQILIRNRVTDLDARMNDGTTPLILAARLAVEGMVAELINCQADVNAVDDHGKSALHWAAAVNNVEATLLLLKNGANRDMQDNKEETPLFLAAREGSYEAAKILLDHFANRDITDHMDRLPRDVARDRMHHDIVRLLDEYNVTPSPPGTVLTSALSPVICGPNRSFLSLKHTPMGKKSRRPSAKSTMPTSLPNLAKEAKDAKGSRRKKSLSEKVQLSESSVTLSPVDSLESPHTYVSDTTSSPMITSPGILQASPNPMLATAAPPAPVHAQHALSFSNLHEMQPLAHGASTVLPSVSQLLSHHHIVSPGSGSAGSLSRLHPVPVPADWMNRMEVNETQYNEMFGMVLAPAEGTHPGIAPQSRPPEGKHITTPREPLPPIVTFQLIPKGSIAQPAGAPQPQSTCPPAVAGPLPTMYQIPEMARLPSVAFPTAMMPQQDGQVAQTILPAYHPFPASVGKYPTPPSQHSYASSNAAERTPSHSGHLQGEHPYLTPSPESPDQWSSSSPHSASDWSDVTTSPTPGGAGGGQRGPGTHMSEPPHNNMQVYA

B1: antibody 4F11 (murine monoclonal anti-human Notch3) (antibody, mouse IgG1, kappa, V domains shown)
VH: EVQLVESGGGLVKPGGSLKLSCAASGFAFSSYDMSWVRQTPEKRLEWVAYISRGGGSTYYPDTVKGRFTISRDNAKNTLYLQMSSLKSEDTAMYYCGRHATTAYWYFDVWGAGTTVTVSS
VL: DVVMTQTPLSLPVSLGDQASISCRSSQSLVHTNGNTYLHWYLQKPGQSPKLLIYKVSNRFSGVPDRFSGSGSGTDFTLKISRVEAEDLGVYFCSQSTHVPWTFGGGTKLEIKR
notes: Mouse IgG1 kappa purified from hybridoma; also called mu4F11; murine 4F11
Turning to B1, the binding result was “no binding (tested: 5 µg/ml)” in experiment [1], “no binding (tested: 5 µg/ml)” in experiment [2], “no binding (tested: 5 µg/ml)” in experiment [3] and “no binding” with rhNotch1-Fc. Moreover, the Kd (usually the concentration at which binding is half-saturated) is 0.823 nM in experiment [4] and 0.78 nM in experiment [5]. The koff (as a rule, the rate constant with which the complex falls apart) in experiment [4] was determined as 4.8e-05 s⁻¹; in experiment [5], 5.7e-05 s⁻¹. In addition, the kon (as a rule, the rate constant with which the complex forms) in experiment [4] was 70000 M⁻¹ s⁻¹; in experiment [5], 75000 M⁻¹ s⁻¹.
